Laboratory results: patent publication US20190167756A1 (CITY OF HOPE, published 2019)

Target: T1, CFP-AR-YFP (full length AR with cyan fluorescent protein and yellow fluorescent protein fused to either end) (UniProt P10275 1-920)
T1 construct: Reporter stably expressed in GT1-7 CARY cells; GT1-7 CARY lysates may also contain endogenous mouse AR; also called CARY; C-AR-Y; not shown: cyan fluorescent protein (CFP); yellow fluorescent protein (YFP)
T1 sequence (looked up): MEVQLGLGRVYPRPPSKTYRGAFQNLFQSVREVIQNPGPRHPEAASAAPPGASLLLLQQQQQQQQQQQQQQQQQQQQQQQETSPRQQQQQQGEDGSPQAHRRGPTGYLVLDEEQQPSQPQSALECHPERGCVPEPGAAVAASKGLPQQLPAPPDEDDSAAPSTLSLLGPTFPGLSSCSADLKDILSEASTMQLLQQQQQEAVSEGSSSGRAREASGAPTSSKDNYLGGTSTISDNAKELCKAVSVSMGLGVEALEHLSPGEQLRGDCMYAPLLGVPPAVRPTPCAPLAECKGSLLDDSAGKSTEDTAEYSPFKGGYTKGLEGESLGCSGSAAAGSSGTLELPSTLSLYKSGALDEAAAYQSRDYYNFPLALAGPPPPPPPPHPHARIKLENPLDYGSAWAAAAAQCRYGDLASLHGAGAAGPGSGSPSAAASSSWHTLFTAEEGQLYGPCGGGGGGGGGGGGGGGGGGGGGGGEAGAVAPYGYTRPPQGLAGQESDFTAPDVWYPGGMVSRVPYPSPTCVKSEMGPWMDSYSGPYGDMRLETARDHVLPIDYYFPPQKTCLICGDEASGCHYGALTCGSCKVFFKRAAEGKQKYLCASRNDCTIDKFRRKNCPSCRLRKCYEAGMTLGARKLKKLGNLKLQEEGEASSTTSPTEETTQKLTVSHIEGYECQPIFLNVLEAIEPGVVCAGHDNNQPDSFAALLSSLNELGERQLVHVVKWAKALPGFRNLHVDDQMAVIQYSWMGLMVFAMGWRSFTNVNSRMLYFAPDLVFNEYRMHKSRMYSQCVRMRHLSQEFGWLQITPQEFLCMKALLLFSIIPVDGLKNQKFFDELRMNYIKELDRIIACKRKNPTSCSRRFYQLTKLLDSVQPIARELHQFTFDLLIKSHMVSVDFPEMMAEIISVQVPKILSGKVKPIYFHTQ
Experiment: co-immunoprecipitation from GT1-7 CARY cell lysates, Western blot

B1: FOXM1 (other, mouse, UniProt O08696 1-760, looked up)
chain: MRTSPRRPLILKRRRLPLPVQNAPSETSEEEAKRSPAQPEPAPAQASQEVAESSSCKFPAGIKIINHPTTPNTQVVAIPSNADIQSIITALTAKGKESGTSGPNRFILISSGGPSSHPSQPQAHSSRDSKRAEVITETLGPKPAAKGVPVPKPPGAPPRQRQESYAGGEAAGCTLDNSLTNIQWLGKMSSDGLGPCSVKQELEEKENCHLEQNRVKVEEPSGVSTSWQDSVSERPPYSYMAMIQFAINSTERKRMTLKDIYTWIEDHFPYFKHIAKPGWKNSIRHNLSLHDMFVRETSANGKVSFWTIHPSANRHLTLDQVFKPLEPGSPQSPEHLESQQKRPNPELHRNVTIKTEIPLGARRKMKPLLPRVSSYLEPIQFPVNQSLVLQPSVKVPFRLAASLMSSELARHSKRVRIAPKVLLSSEGIAPLPATEPPKEEKPLLGGEGLLPLLPIQSIKEEEMQPEEDIAHLERPIKVESPPLEEWPSPCASLKEELSNSWEDSSCSPTPKPKKSYCGLKSPTRCVSEMLVTKRREKREVSRSRRKQHLQPPCLDEPDLFFPEDSSTFRPAVELLAESSEPAPHLSCPQEEGGPFKTPIKETLPVSSTPSKSVLSRDPESWRLTPPAKVGGLDFSPVRTPQGAFGLLPDSLGLMELNTTPLKSGPLFDSPRELLNSEPFDLASDPFGSPPPPHVEGPKPGSPELQIPSLSANRSLTEGLVLDTMNDSLSKILLDISFPGLEEDPLGPDNINWSQFIPELR
notes: also called Forkhead Box Protein M1
binding result: no binding
